Here are results for 12 molecules from US20230012273A1 (Boehringer Ingelheim, published 2023).

Assay [1] addresses T1, cynoSIRPα (EGM_02252), Extracellular Domain + His-Tag (cynomolgus monkey).
T1 construct: also called CySIRPα EGM_02252; not shown: His-Tag
T1 chain: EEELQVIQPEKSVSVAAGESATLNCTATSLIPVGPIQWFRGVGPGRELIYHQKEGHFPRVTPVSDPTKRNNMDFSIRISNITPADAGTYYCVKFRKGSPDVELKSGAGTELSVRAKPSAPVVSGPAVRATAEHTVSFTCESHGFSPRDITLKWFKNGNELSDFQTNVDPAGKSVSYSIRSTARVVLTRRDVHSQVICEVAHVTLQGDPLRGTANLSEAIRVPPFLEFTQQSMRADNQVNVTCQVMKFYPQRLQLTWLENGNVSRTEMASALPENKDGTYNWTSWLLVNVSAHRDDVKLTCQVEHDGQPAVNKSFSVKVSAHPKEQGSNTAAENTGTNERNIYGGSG
The assay can be described thus: SPR, antibody captured on Protein A/G, ECD-His analyte, steady-state fit. The procedure:
(§1) The binding kinetics of anti-SIRPα antibodies to various SIRPα analytes are determined by surface plasmon resonance (SPR) using a Biacore 8K+(Cytiva). 1×HBS-EP+(Cytiva) is used as running buffer and for all the dilutions unless stated otherwise. The Series S CM5 sensorchip is activated with a 1:1 mixture of 0.1 M NHS (N-hydroxysuccinimide) and 0.4 M EDC (1-Ethyl-3-(3-dimethylaminopropyl) carbodiimide hydrochloride) for 420 seconds at a flow rate of 10 μl/min and immobilized with Protein A/G (Thermo Scientific, 10 μg/ml in 10 mM acetate pH 4.5) for 420 seconds at a flowrate of 10 μl/min resulting in approximately 3000 RU of Protein A/G on the surface. The sensorchip is then deactivated with 1 M ethanolamine HCl pH 8.5 for 420 seconds at a flowrate of 10 μl/min.
(§2) Antibodies (approximately 1 ug/ml) are captured on the Protein A/G surface for 60 seconds at a flowrate of 10 μl/min resulting in capture levels of approximately 240 RU. Dilutions of each SIRP protein (Extracellular Domain+His-Tag, with the concentrations as indicated) are injected as analytes over the captured antibody for 300 seconds of association at a flowrate of 30 μl/min, followed by a dissociation for 600 seconds.
(§3) The above procedures are used to measure binding properties of antibodies of the present disclosure. For each analyte used, the highest concentration was as indicated in Example 3 (see Table 36).
In general terms: SPR reads the build-up and loss of mass on a sensor chip optically.

In assay [2] the target is T2, cynoSIRPα (NP_001271679), Extracellular Domain + His-Tag (cynomolgus monkey).
T2 construct: also called CySIRPα NP_001271679; not shown: His-Tag
T2 chain: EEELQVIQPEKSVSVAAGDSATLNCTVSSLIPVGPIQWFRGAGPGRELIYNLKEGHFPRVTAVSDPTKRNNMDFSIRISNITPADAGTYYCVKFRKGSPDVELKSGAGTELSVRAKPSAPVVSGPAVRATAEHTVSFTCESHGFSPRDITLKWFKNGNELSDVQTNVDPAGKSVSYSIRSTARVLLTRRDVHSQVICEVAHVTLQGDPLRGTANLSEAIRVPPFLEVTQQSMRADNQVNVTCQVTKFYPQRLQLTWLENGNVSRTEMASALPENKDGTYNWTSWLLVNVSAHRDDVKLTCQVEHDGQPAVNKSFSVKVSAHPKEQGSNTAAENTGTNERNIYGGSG
The description is as above. The procedure: as §1, §2, §3

For assay [3], the target named is T3, cynoSIRPα (XP_015313155), Extracellular Domain + His-Tag (cynomolgus monkey).
T3 construct: also called CySIRPα XP_015313155; not shown: His-Tag
T3 chain: T2 chain with A62P, V163F, L185V
Described as above. Here is the method: as §1, §2, §3

Assay [4] deals with T4, Human SIRPαV1 (NP_542970.1), Extracellular Domain + His-Tag (human, UniProt P78324 31-373).
T4 construct: also called huSIRPαV1; hSIRPαV1; not shown: His-Tag
The assay can be described thus: SPR, antibody captured on Protein A/G, ECD-His analyte, 1:1 fit. A digest of the protocol: (§4)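 Biacore 8K+ at HBS-EP+, with antibodies (~1 ug/ml) captured on Protein A/G CM5 surface to ~240 RU. SIRPα ECD-His analyte dilutions injected at 30 μl/min for 300 s association, 600 s dissociation.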

Assay [5] addresses T5, Human SIRPαV2 (CAA71403.1), Extracellular Domain + His-Tag (human, UniProt P78324 31-373).
T5 construct: also called huSIRPαV2; hSIRPαV2; not shown: His-Tag
The assay is described as above. The method, boiled down:
as §4

Residue numbers refer to the chain shown, from its start.

T5 sequence (P78324 other isoform, or with tags, fused parts or gaps): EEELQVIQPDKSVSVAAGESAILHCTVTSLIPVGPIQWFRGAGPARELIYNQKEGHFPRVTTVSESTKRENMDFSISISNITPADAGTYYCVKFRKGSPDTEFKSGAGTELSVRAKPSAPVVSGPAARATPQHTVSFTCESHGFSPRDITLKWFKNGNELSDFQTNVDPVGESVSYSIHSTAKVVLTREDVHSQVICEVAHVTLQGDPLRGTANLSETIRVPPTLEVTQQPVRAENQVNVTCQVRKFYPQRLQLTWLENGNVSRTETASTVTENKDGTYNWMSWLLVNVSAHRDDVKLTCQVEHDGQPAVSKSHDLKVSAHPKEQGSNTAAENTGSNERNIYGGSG
T4 sequence (P78324 other isoform, or with tags, fused parts or gaps): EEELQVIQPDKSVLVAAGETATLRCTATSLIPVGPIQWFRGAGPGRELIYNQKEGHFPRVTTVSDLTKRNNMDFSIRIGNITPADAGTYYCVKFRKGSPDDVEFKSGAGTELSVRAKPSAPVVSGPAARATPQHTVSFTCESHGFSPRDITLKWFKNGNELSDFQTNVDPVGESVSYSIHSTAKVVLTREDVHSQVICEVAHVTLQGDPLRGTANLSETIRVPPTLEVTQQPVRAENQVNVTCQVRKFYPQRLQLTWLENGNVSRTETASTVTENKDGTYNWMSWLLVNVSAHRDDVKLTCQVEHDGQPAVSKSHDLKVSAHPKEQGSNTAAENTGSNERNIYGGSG

B1: Antibody A2 (antibody, human IgG1, kappa, L234A L235A, V domains shown)
VH: EVQLVESGGGLVQPGGSLRLSCAASGFTLSSYDMHWVRQATGKGLEWVSAIGTAGDTYYTGSVKGRFTISRENAKNSLYLQMNSLRAADTAVYYCVRGGVWDDAFDIWGQGTMVTVSS
VL: DIQMTQSPSSLSASVGDRVTITCRASQGINNYAAWFQQKPGKAPKSLIYTASSLHSGVPSKFSGSGSGTDFTLTISSLQPEDFATYYCQQYVSYPYTFGQGTKLEIKR
As usually defined, the Kd is a measure of binding affinity in units of concentration. By koff is commonly meant a measure of how fast the partners let go of each other. The kon is the second-order rate constant of association. As to B1, the Kd in assay [1] is 556 nM; in assay [2], 887 nM; in assay [3], 469 nM; in assay [4], 9.39 nM; in assay [5], 20.9 nM. For the same molecule, the koff in assay [4] came out at 0.00685 s⁻¹; in assay [5], 0.0184 s⁻¹. Moreover, the values for the kon in assay [4] and in assay [5] were 729000 M⁻¹ s⁻¹ and 883000 M⁻¹ s⁻¹, respectively.

B2: Antibody A14 (antibody, human IgG1, kappa, L234A L235A, V domains shown)
VH: B1 VH with T41P, A88S
VL: B1 VL with G28D, A33L
With B2, the dissociation constant (Kd) in assay [1] came to 222 nM; in assay [2] it was 316 nM; in assay [3], 176 nM; in assay [4], 8.13 nM; in assay [5] it was 7.95 nM. Moreover, the koff in assay [4] worked out at 0.00397 s⁻¹; in assay [5], 0.00648 s⁻¹. The values for the association rate constant (kon) in assay [4] and in assay [5] were 488000 M⁻¹ s⁻¹ and 816000 M⁻¹ s⁻¹, respectively.

B3: Antibody A3 (antibody, human IgG1, kappa, L234A L235A, V domains shown)
VH: B1 VH with A88S
VL: B1 VL
For the molecule B3, the Kd was 560 nM in assay [1]; 857 nM in assay [2]; 480 nM in assay [3]; 9.06 nM in assay [4]; 19.6 nM in assay [5]. In addition, the off-rate (koff) in assay [4] was determined as 0.00661 s⁻¹; in assay [5], 0.0178 s⁻¹. Also, the on-rate constant (kon) in assay [4] was found to be 730000 M⁻¹ s⁻¹; in assay [5] it was 907000 M⁻¹ s⁻¹.

B4: Antibody A6 (antibody, human IgG1, kappa, L234A L235A, V domains shown)
VH: B1 VH with T41P, A88E
VL: B1 VL
Consider B4, for which the Kd in assay [1] was found to be 521 nM; in assay [2] it was 684 nM; in assay [3] it was 420 nM; in assay [4], 8.28 nM; in assay [5], 18.1 nM. Besides, the koff in assay [4] was 0.00634 s⁻¹; in assay [5], 0.0171 s⁻¹. The figures for the kon in assay [4] and in assay [5] were 766000 M⁻¹ s⁻¹ and 947000 M⁻¹ s⁻¹, respectively.

B5: Antibody A16 (antibody, human IgG1, kappa, L234A L235A, V domains shown)
VH: B1 VH with T41P, A88G
VL: B1 VL with G28D, A33L
As to B5, the dissociation constant Kd in assay [1] is 224 nM; in assay [2], 306 nM; in assay [3], 174 nM; in assay [4], 7.98 nM; in assay [5], 8.22 nM. The values for the koff in assay [4] and in assay [5] were 0.00377 s⁻¹ and 0.0063 s⁻¹, respectively. Further, the results for the kon in assay [4] and in assay [5] were 472000 M⁻¹ s⁻¹ and 766000 M⁻¹ s⁻¹, respectively.

B6: Antibody A9 (antibody, human IgG1, kappa, L234A L235A, V domains shown)
VH: B1 VH with T41P, A88D
VL: B1 VL with G28D, A33L
For B6, the Kd in assay [1] is 230 nM; in assay [2], 346 nM; in assay [3] it was 174 nM; in assay [4], 7.34 nM; in assay [5] it was 8.25 nM. For the same molecule, the dissociation rate constant (koff) in assay [4] worked out at 0.00363 s⁻¹; in assay [5], 0.00652 s⁻¹. Further, the association rate constant (kon) in assay [4] is 495000 M⁻¹ s⁻¹; in assay [5] it was 791000 M⁻¹ s⁻¹.

B7: Antibody A12 (antibody, human IgG1, kappa, L234A L235A, V domains shown)
VH: B1 VH with A88S
VL: B1 VL with G28D, A33L
For the molecule B7, the dissociation constant Kd in assay [1] came out at 247 nM; in assay [2] it was 384 nM; in assay [3], 195 nM; in assay [4] it was 7.83 nM; in assay [5], 8.96 nM. The koff in assay [4] came to 0.00378 s⁻¹; in assay [5], 0.00689 s⁻¹. Besides, the kon in assay [4] came out at 482000 M⁻¹ s⁻¹; in assay [5] it was 769000 M⁻¹ s⁻¹.

B8: Antibody A5 (antibody, human IgG1, kappa, L234A L235A, V domains shown)
VH: B1 VH with T41P, A88S
VL: B1 VL
With B8, the Kd in assay [1] turned out to be 517 nM; in assay [2], 665 nM; in assay [3] it was 415 nM; in assay [4], 8.75 nM; in assay [5] it was 17.8 nM. The off-rate (koff) in assay [4] was determined as 0.00598 s⁻¹; in assay [5] it was 0.0162 s⁻¹. Besides, the kon in assay [4] came out at 684000 M⁻¹ s⁻¹; in assay [5], 909000 M⁻¹ s⁻¹.

B9: Antibody A13 (antibody, human IgG1, kappa, L234A L235A, V domains shown)
VH: B1 VH with T41P
VL: B1 VL with G28D, A33L
For B9, the dissociation constant Kd was 223 nM in assay [1]; 330 nM in assay [2]; 177 nM in assay [3]; 7.28 nM in assay [4]; 8.36 nM in assay [5]. For the same molecule, the figures for the koff in assay [4] and in assay [5] were 0.00352 s⁻¹ and 0.00635 s⁻¹, respectively. For the same molecule, the figures for the kon in assay [4] and in assay [5] were 484000 M⁻¹ s⁻¹ and 760000 M⁻¹ s⁻¹, respectively.

B10: Antibody A7 (antibody, human IgG1, kappa, L234A L235A, V domains shown)
VH: B1 VH with A88G
VL: B1 VL
As for B10, the Kd in assay [1] turned out to be 588 nM; in assay [2], 741 nM; in assay [3], 466 nM; in assay [4], 9.38 nM; in assay [5] it was 20.4 nM. The koff in assay [4] was 0.00672 s⁻¹; in assay [5] it was 0.019 s⁻¹. In addition, the kon in assay [4] was 716000 M⁻¹ s⁻¹; in assay [5], 933000 M⁻¹ s⁻¹.

B11: Antibody A8 (antibody, human IgG1, kappa, L234A L235A, V domains shown)
VH: B1 VH with T41P, A88G
VL: B1 VL
In the case of B11, the Kd in assay [1] amounted to 520 nM; in assay [2], 639 nM; in assay [3] it was 415 nM; in assay [4], 8.53 nM; in assay [5], 18.8 nM. For the same molecule, the koff in assay [4] amounted to 0.00604 s⁻¹; in assay [5] it was 0.0162 s⁻¹. Moreover, the kon worked out at 708000 M⁻¹ s⁻¹ in assay [4] and 859000 M⁻¹ s⁻¹ in assay [5].

B12: Antibody A15 (antibody, human IgG1, kappa, L234A L235A, V domains shown)
VH: B1 VH with T41P, A88E
VL: B1 VL with G28D, A33L
As for B12, the Kd amounted to 224 nM in assay [1]; 317 nM in assay [2]; 174 nM in assay [3]; 7.06 nM in assay [4]; 7.91 nM in assay [5]. The values for the koff in assay [4] and in assay [5] were 0.00371 s⁻¹ and 0.00671 s⁻¹, respectively. For the same molecule, the on-rate constant (kon) in assay [4] was found to be 526000 M⁻¹ s⁻¹; in assay [5], 848000 M⁻¹ s⁻¹.
